Source: PMC7335352

Tests used:
[1] = biological target: condensin I holocomplex (CI) (Homo sapiens, UniProt O95347;Q9NTJ3;Q15021;Q9BPX3;Q15003 1-1197;1-1288;1-1401;1-1015;1-741); experiment: fluorescence polarization; no ATP; 75 mM NaCl; FP: 20 mM Tris pH 7.5, 75 mM NaCl, 2.5% glycerol, 1 mM DTT, room temp, 50 nM DNA; EMSA: 20 mM HEPES pH 8, 300 mM KCl, 5 mM MgCl2, 1 mM DTT, 10% glycerol, on ice; curtains: 40 mM Tris-HCl pH 7.5, 125 mM NaCl, 5 mM MgCl2, 1 mM DTT, 0.5 mg/mL BSA, 37 C; conditions: protein: recombinant; tags: 6xHis-SMC4; CAP-H 2xStrep; copies: 1;1;1;1;1; label: 6-FAM on reverse strand; blunt
[2] = biological target: condensin II holocomplex (CII) (Homo sapiens, UniProt O95347;Q9NTJ3;P42695;Q86XI2;Q6IBW4 1-1197;1-1288;1-1498;1-1143;1-605); experiment: as above; conditions: protein: recombinant; tags: 6xHis-SMC4; CAP-H2 2xStrep; copies: 1;1;1;1;1; label: 6-FAM on reverse strand; blunt

B1: 30-bp dsDNA, 6-FAM (dsDNA)
DNA 1: CTGTCACACCCTGTCACACCTGTCACAC
DNA 2: GTGTGACAGGTGTGACAGGGTGTGACAG
Kd [1]: 3000 ± 300 nM
Kd [2]: 1200 ± 100 nM
